Measurements as given in the DeepSol protein solubility set.

Assay: soluble on expression in E. coli; label from the status in PepcDB or PDB records
With “MRKLLAVFSKGRWKMEQKLQEQLDGLLEKYTELLLGETNDELKEEVKQWILYTHIAKSMPPLAKHWNATYPDAKQGIKEIIQHIKELNEAHRNKQLEHHHHHH” the “soluble on expression in E. coli” value was “soluble”.
For “MIADWLEQNGYPISSQVLKTEMSGNYMESAEKHVENGEKIDNLLRSQLKIDIRDGTGDDFERKSIKSIGAGRPFAKINMVDKQRAPLKITPLSDEEFRKTMRKRMEMERERLARLSNQAEDDSDDSSSSSDSSTSSASSSSEEKLTFSDILGKPTAAGAEKMIELSQIPNAWGPSKSALVTDDVASTSDPLPAIFNAHLPPLSMGRPPLTKSAKSREIDAIFGSDNVDYDLEDFEQDGVAKKKSILPMEKKKEEAKPKEQELVEPLVLSEGESIDELEDFDTGLLSSGGSDYSF”, the “soluble on expression in E. coli” value was “not soluble”.
With “MSKLVYLLLMIFFLNPAWANTHYHQHPVSPLANALRTGTDTNGNALYLCRAKLFNSIQPGKTWAGYGRCNVPYGGKEYVLSQFTIPNQNEFGRYSWEPNVEHALLMGKDTNGNPLFVCQSNFNGSIQPGKTWPGYSHCNISYGGREIITDNYRILSRPTEIIVRTQPPVHRHPSQNRHYHYLEHHHHHH” the “soluble on expression in E. coli” value was “soluble”.
For “DTTQNLMIEGDNLEVLKLLQKSYAGKIKLIYIDPPYNTGKDFVYPDDFKDNIRNYLELTGQVEGGRKISSNTEASGRFHTDWLNMMYPRLKIARQLLSPTGVIAVHIDEHELEALVIVLRDLFGEENELGVTIWDKRNPKGDSRGIAYQHESLVLFARDAEELFARSPVRRAKRNAERMLNAASRFVTECGSIAEARAAYRSWVKSQSTLSGGESMYDKLSETGRVYRLVSMAWPNKKRAPADYFVPLKHPITGKDCPIPERGWRNPPATMKKLLEDGLIEFGPDEIMQPQRIYFLDENMYENVPSIVPFGGSDDELLKELSVPFEQPKPVDFSVQVISWCSSKDEIVMDFFAGSGTTGHAVMAQNAADGGNRRYILVQLPEPLDPENKDQKVAAEFCDKLGKPRTIAELTKERLRRAAKKIKEENPLFAGDLGFRVFKLDSSNIRA”, the “soluble on expression in E. coli” value was “not soluble”.
With “MVSKLVKIEPKFKLIEKDGKGEYFIAKYNILPENLLVYGPEQELKKINTIQTNVKEFDTRTLFVSDYLEVVPPNPLVMFEKSHVVVNIYLNKLEHHHHHH” the “soluble on expression in E. coli” value was “not soluble”.
For “MGSDKIHHHHHHMAENFLTQDEVDALLNFENGSKHQQTAQKENEVSYPGGVRPYNMATQERIVRGRMPALEIINARFANSLQIGLYNFLRRGVDISAGSIKTIKYSEFTRSLVVPANINLVSMKPLRGTALFTIDPNLIFLIVDNMFGGDGRFHTRVEGREFTLTEQGIIRRLLDVLFEHYEKAWQSVYPVKFEYIRAEMNPQFANIVTPTDIVVASAFELNLGGNRGEFYTCIPYTMLEPIRDLLNNSMQEDRAEVDKNWIKSLTRQVQGAEIEIIANLGQTQVTLHQILNMQEGDVIALDIPDTVVAIANNVPIMDCHYGILNGHYALKVKTVRSPNETD”, the “soluble on expression in E. coli” value was “not soluble”.
With “MSLEDIWHKADELCEKNIKIVIRNLGLNLTISFQCYSHLLQNIPSMLGSIPFQRILSERKNKFDNAIVVSAGPSLTKQLPLLKAYQDKAVVFCADGALSMLEKEGVVPDYVLNIDFEDLPLRFFKNKQNKLSLNILSCATHPSLVHFLDNKSVILRDDPLYQSFNLNDFGYIDTGTHVSHFSYTLALALGFKNIIMIGQDLAFDEEGNSHSKGFDFGEKFEEEHKKYKLKTQAYGGKGEVLTHITWNDYRVKLEYLFACNDQKAKFYNATEGGARINFTEELSFKECCEKLLTKEKPKFELPKSLTKNRSDKLLAKFKEKIQKDQENAKRFLDDEGHHHHHH” the “soluble on expression in E. coli” value was “soluble”.
With “MQIQKSFKGQSPYGKLYLVATPIGNLDDMTFRAIQTLKEVDWIAAEDTRNTGLLLKHFDISTKQISFHEHNAKEKIPDLIGFLKAGQSIAQVSDAGLPSISDPGHDLVKAAIEEEIAVVTVPGASAGISALIASGLAPQPHIFYGFLPRKSGQQKQFFGLKKDYPETQIFYESPHRVADTLENMLEVYGDRSVVLVRELTKIYEEYQRGTISELLESIAETPLKGECLLIVEGASQGVEEKDEEDLFVEIQTRIQQGVKKNQAIKEVAKIYQWNKSQLYAAYHDWEEKQ” the “soluble on expression in E. coli” value was “not soluble”.
